# B1: HA-tagged wild-type diacylglycerol kinase ζ (enzyme)
# chain: not shown
# notes: diacylglycerol kinase ζ (DGKζ), wild type; also called HA-DGKζ; HA-DGKζ^WT; source: MEFs, infected with adenoviral vector or transiently transfected, in lysate
# What was measured:
# [1] = target: T1, GST fusion protein of inactive RhoA (RhoA^N19) (UniProt P61586 1-193, RhoA^N19); assay: pull-down; GST fusion proteins immobilised on beads, incubated 1 to 2 h at 4 °C with lysates of MEFs expressing HA-tagged DGKζ constructs; washed at least four times with ice-cold lysis buffer; bound DGKζ detected by anti-HA immunoblot; in some panels cells were treated with vehicle, 100 nM PMA, or 1 μM Gö6976 before PMA; conditions: one partner purified
# T1 construct: cDNA from the Missouri S&T cDNA Resource Center, subcloned into pGEX-4T-3; also called GST-RhoA^N19; GST-RhoN^19; source: recombinant GST fusion (pGEX-4T-3), purified as described previously
# T1 sequence (P61586 other isoform, or with tags, fused parts or gaps RhoA^N19 | RhoA^N19): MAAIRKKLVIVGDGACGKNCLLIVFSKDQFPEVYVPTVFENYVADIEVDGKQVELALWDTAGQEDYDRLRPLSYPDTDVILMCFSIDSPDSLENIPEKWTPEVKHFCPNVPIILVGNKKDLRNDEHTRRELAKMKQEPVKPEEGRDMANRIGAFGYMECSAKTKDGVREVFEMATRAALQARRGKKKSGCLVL
# [2] = target: T2, GST fusion protein of constitutively active RhoA (RhoA^V14) (UniProt P61586 1-193, RhoA^V14); assay: as above; conditions: one partner purified
# T2 construct: RhoA, constitutively active V14 mutant; cDNA from the Missouri S&T cDNA Resource Center, subcloned into pGEX-4T-3; also called GST-RhoA^V14; source: recombinant GST fusion (pGEX-4T-3), purified as described previously
# T2 sequence (P61586 other isoform, or with tags, fused parts or gaps RhoA^V14 | RhoA^V14): as the sequence (P61586 other isoform, or with tags, fused parts or gaps RhoA^N19 | RhoA^N19) above, with G14V, N19T counted along it
binder,measurement,setting,value
B1,fold change of binding after PMA against vehicle control,[1],~2 fold
same,fold change of binding after PMA against vehicle control,[2],~2 fold
